# Data published in US20080113907A1, “Uses Of Galectin-2” (Charite-Universitat-Smedizin Berlin, priority 2004, published 2008).
# B1: galectin-2: β-galactoside binding lectin, non-covalent dimer with subunits of about 14 kDa; recombinant human or rat (SEQ ID NO:1, 2) (protein)
# chain: MAGELEVKNMDMKPGSTLKITGSIADGTDGFVINLGQGTDKLNLHFNPRFSESTIVCNSLDGSNWGQEQREDHLCFSPGSEVKFTVTFESDKFKVKLPDGHELTFPNRLGHSHLSYLSVRGGFNMSSFKLKE
# What was measured:
# [1] = system: caspase-3; assay: Caspase activity by flow cytometry; format: cell-based, human; conditions: anti-CD3 activated PBT, 50 μg/ml, 24 h
# Experimental: (§1) To measure caspase activity, 5×10^5 PBT were incubated in the presence or absence of 50 μg/ml galectin-2 together with derivates of the PE-labelled affinity purified anti-caspase-3 Ab (BD Pharmingen), the carboxyfluorescein-labelled caspase-8 inhibitor FAM-LETD-fmk or caspase-9 inhibitor FAM-LEHD-fmk (both from Biocharta, Hamburg, Germany), all binding irreversibly to activated caspase-3, -8 or -9, respectively. Cells were than analyzed by flow cytometry (FACS-Calibur, BD) and the increase of caspase activity determined after proper gating in correlation to untreated cells.
# [2] = system: caspase-9; assay: Caspase activity by flow cytometry; format: cell-based, human; conditions: anti-CD3 activated PBT, 50 μg/ml, 24 h
# Experimental: as §1
# [3] = system: PBT; assay: Analysis of T cell cycling (DNA content, cyclin B1, cell cycle regulators); format: cell-based, human
# Experimental: For immunoblotting cells were washed in PBS, and lysed in cell lysis buffer (1% Triton-X, 0.5% NP-40, 0.1% SDS, 0.5% sodium deoxycholate, 5 mM EDTA, 50 mM and 50 mM protease- and phosphatase-inhibitor cocktail 2, 1 mM PMSF, 100 μg/ml trypsin-chymotrypsin inhibitor, 100 μg/ml chymostatin in PBS). The concentration of proteins in each lysate was measured using the Bio-Rad protein assay (Bio-Rad Laboratories, Hercules, Calif.). Equivalent amounts of protein (10 μg) were fractionated on a 10-20% Tris-glycine gel and electrotransferred to a nitrocellulose membrane (Novex, San Diego, Calif.). Membranes were blocked with 5% milk in 0.1% Tween 20-PBS (Fisher Scientific, Hanover Park, Ill.), followed by incubation for 60 m in at room temperature with the indicated primary antibody. The membranes were washed six times with 0.1% Tween 20-PBS and then incubated for 1 h with the appropriate horseradish peroxidase-conjugated secondary antibody (Santa Cruz Biotechnology), washed, and incubated with the chemiluminescent substrate (Perkin-Elmer, Carlsbad, Calif.) for 5 minutes. The membranes were then exposed to film (Amersham, Arlington Heights, Ill.).
# Flow cytometry was performed after staining for DNA content, and cyclin B1, essentially as previously described (21). Briefly, cells were washed twice with PBS, adjusted to 1×10^6 cells/sample and fixed in 90% Methanol at −20° C. After fixation, cells were washed twice with PBS, incubated for 45 min at 4° C. with a cyclin B1-FITC conjugated monoclonal antibody. After the final wash, cells were resupended in PBS and 5 μl of RNase (0.6 μg/ml, 30-60 Kunitz Units, Sigma), incubated at 37° C. for 15 min and the chilled on ice. One hundred and twenty five microliters of PI (200 μg/ml) were added prior to analysis by flow cytometry. Each analysis was performed on at least 25.000 events.
# [4] = system: T cells (PBT, LPT); assay: Adhesion assay to collagen type I and fibronectin; format: cell-based, human
# Experimental: 96 well flat-bottom plates were precoated overnight at 4° C. with 12 μg/well fibronectin (Chemicon) in DPBS, 40 μg/well collagen type I (Sigma-Aldrich) in 0.1 M acetic acid, or 3% BSA (Sigma-Aldrich) in DPBS as a control and then washed three times with DPBS. Freshly isolated T cells were fluorescently-labelled with 5 μM calcein-AM (Molecular Probes, Eugene, Oreg.) for 30 min at 37° C. in 5% CO2 at 5×10^6 cells/ml in RPMI. The cells were then washed three times with RPMI containing 5% FCS. Calcein-labelled T cells were resuspended in RPMI and 5×10^5 T cells/well were added to 96-well plates containing purified ECM components or BSA for the indicated times. Saturating concentrations of integrin-blocking mAbs (predetermined by flow cytometry) were preincubated with T cells for 30 min at 37° C. before adding T cells to the wells for the adhesion assay. Nonadherent cells were removed by a standardized washing technique that was developed to minimize background binding, which includes both an orbital and a rocking motion repeated three times with RPMI. Adhesion was quantified with a multiwell fluorescent spectrophotometer (Tecan, Groedig, Austria). For each experimental group the results were expressed as the mean percentage±SD of bound T cells from triplicate wells.
# [5] = Toxicity study with supratherapeutic dose in healthy mice; format: in vivo, Balb/c mice
# Experimental: In addition, Balb/c mice (not treated with DSS) were treated with 100 mg/kg body weight-Galectin-2, a dose that was up to 50-fold higher than doses of Galectin-2 that caused optimal anti-inflammatory effects in DSS treated mice (optimal therapeutic doses ranged from 1.5-3 mg/kg body weight per day). In these toxicity studies Balb/c mice (n=5), weighing on average 20 g, were treated with 100 mg/kg body weight Galectin-2 once daily i.p. for 5 days. The mice gained about 7±1.7% weight during the 5 day treatment period. […] The mice were sacrificed following the 5 day treatment period and organs were collected for pathological assessment by an experienced pathologist.
# [6] = 100 mg/kg once daily i.p. for 5 days
molecule,measurement,setting,value
B1,caspase-3 activity,[1],significant increase
same,caspase-9 activity,[2],significant increase
same,cyclin B1 levels / cell cycle progression,[3]; anti-CD3 activated PBT,unchanged cyclin B1 levels
same,cell cycle phase distribution,"[3]; anti-CD3 activated PBT, 25, 50, 100 μg/ml",comparable
same,"protein levels of cyclin D2, Rb, cyclin A, p21, p27, p53","[3]; western blot, 72 h",did not alter protein levels
same,cells adhering to collagen type I,"[4]; CD3 activated PBT, without galectin 22.1±3.5%",15.1±5.6%
same,cells adhering to fibronectin,"[4]; CD3 activated PBT, without galectin 26.3±5.6%",39.8±4.9%
same,attachment to fibronectin,[4]; LPT,increasing
same,cell adhesion to collagen,[4]; LPT,inhibited
same,mortality,[5]; [6],None of these animals died
same,"pathological assessment of heart, kidney, lung, liver",[5]; [6],did not reveal any microscopic or macroscopic damage
same,weight gain,[5]; [6],about 7±1.7%
same,highest dose evaluated relative to optimal dose,[5]; 100 mg/kg versus 2×1 mg/kg,about 50 fold
same,dose limiting toxicities,[5]; broad dose range up to 100 mg/kg,no dose limiting toxicities were observed
